Data published in the supplement of paper PMC10567573.

B1: AUP1 (parent)
chain: FCASTRLPPTPLLLFPEEEATNGR

Variants of: B1
Test: protein stability index of a GFP-peptide fusion (GPS, HEK-293T) (PSI 1-6); higher = more stable
Conditions: c terminus: a fixed tail appended
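Also: lentivirally expressed fusions sorted by FACS into six bins by GFP to DsRed ratio, PSI derived from sequencing read proportions per bin multiplied by bin number.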

Variant | protein stability index
FCASTRLGPTPLLLFPEEEATNGR [P8G] | 2.66
FCASTRLIPTPLLLFPEEEATNGR [P8I] | 2.3
FGASTRLPPTPLLLFPEEEATNGR [C2G] | 4.33
FSASTRLPPTPLLLFPEEEATNGR [C2S] | 3.8
FDASTRLPPTPLLLFPEEEATNGR [C2D] | 4.81
FRASTRLPPTPLLLFPEEEATNGR [C2R] | 3.81
FIASTRLPPTPLLLFPEEEATNGR [C2I] | 2.62
FNASTRLPPTPLLLFPEEEATNGR [C2N] | 3.82
FQASTRLPPTPLLLFPEEEATNGR [C2Q] | 3.58
FEASTRLPPTPLLLFPEEEATNGR [C2E] | 4.91
FMASTRLPPTPLLLFPEEEATNGR [C2M] | 3.73
FLASTRLPPTPLLLFPEEEATNGR [C2L] | 3.39
FYASTRLPPTPLLLFPEEEATNGR [C2Y] | 3.31
FWASTRLPPTPLLLFPEEEATNGR [C2W] | 2.76
FTASTRLPPTPLLLFPEEEATNGR [C2T] | 3.42
FAASTRLPPTPLLLFPEEEATNGR [C2A] | 3.42
FKASTRLPPTPLLLFPEEEATNGR [C2K] | 4.06
FVASTRLPPTPLLLFPEEEATNGR [C2V] | 1.55
FHASTRLPPTPLLLFPEEEATNGR [C2H] | 2.17
FFASTRLPPTPLLLFPEEEATNGR [C2F] | 3.1
FPASTRLPPTPLLLFPEEEATNGR [C2P] | 3.92
FCVSTRLPPTPLLLFPEEEATNGR [A3V] | 2.76
FCGSTRLPPTPLLLFPEEEATNGR [A3G] | 2.36
FCYSTRLPPTPLLLFPEEEATNGR [A3Y] | 1.7

Variant | protein stability index
FCKSTRLPPTPLLLFPEEEATNGR [A3K] | 2.5
FCHSTRLPPTPLLLFPEEEATNGR [A3H] | 2.49
FCESTRLPPTPLLLFPEEEATNGR [A3E] | 3.67
FCISTRLPPTPLLLFPEEEATNGR [A3I] | 2.46
FCTSTRLPPTPLLLFPEEEATNGR [A3T] | 2.84
FCMSTRLPPTPLLLFPEEEATNGR [A3M] | 2.88
FCWSTRLPPTPLLLFPEEEATNGR [A3W] | 1.89
FCQSTRLPPTPLLLFPEEEATNGR [A3Q] | 2.88
FCNSTRLPPTPLLLFPEEEATNGR [A3N] | 2.62
FCCSTRLPPTPLLLFPEEEATNGR [A3C] | 2.78
FCSSTRLPPTPLLLFPEEEATNGR [A3S] | 2.44
FCDSTRLPPTPLLLFPEEEATNGR [A3D] | 3.33
FCLSTRLPPTPLLLFPEEEATNGR [A3L] | 3.27
FCPSTRLPPTPLLLFPEEEATNGR [A3P] | 2.25
FCFSTRLPPTPLLLFPEEEATNGR [A3F] | 2.45
FCRSTRLPPTPLLLFPEEEATNGR [A3R] | 2.23
FCASTRLPNTPLLLFPEEEATNGR [P9N] | 2.84
FCASTRLPQTPLLLFPEEEATNGR [P9Q] | 2.62
FCASTRLPLTPLLLFPEEEATNGR [P9L] | 2.11
FCASTRLPETPLLLFPEEEATNGR [P9E] | 2.89
FCASTRLPSTPLLLFPEEEATNGR [P9S] | 2.82
FCASTRLPITPLLLFPEEEATNGR [P9I] | 2.43
FCASTRLPVTPLLLFPEEEATNGR [P9V] | 2.62
FCASTRLPTTPLLLFPEEEATNGR [P9T] | 2.46

Variant | protein stability index
FCASTRLPATPLLLFPEEEATNGR [P9A] | 2.59
FCASTRLPYTPLLLFPEEEATNGR [P9Y] | 2.03
FCASTRLPMTPLLLFPEEEATNGR [P9M] | 1.84
FCASTRLPDTPLLLFPEEEATNGR [P9D] | 2.74
FCASTRLPGTPLLLFPEEEATNGR [P9G] | 2.78
FCASTRLPHTPLLLFPEEEATNGR [P9H] | 2.56
FCASTRLPCTPLLLFPEEEATNGR [P9C] | 2
FCASTRLPWTPLLLFPEEEATNGR [P9W] | 2.97
FCASTRLPKTPLLLFPEEEATNGR [P9K] | 2.67
FCASTRLPFTPLLLFPEEEATNGR [P9F] | 1.58
FCASTRLPRTPLLLFPEEEATNGR [P9R] | 2.3
FCAHTRLPPTPLLLFPEEEATNGR [S4H] | 3.05
FCAETRLPPTPLLLFPEEEATNGR [S4E] | 3.52
FCAITRLPPTPLLLFPEEEATNGR [S4I] | 2.49
FCAYTRLPPTPLLLFPEEEATNGR [S4Y] | 2.28
FCAMTRLPPTPLLLFPEEEATNGR [S4M] | 2.59
FCAGTRLPPTPLLLFPEEEATNGR [S4G] | 2.85
FCANTRLPPTPLLLFPEEEATNGR [S4N] | 2.94
FCADTRLPPTPLLLFPEEEATNGR [S4D] | 3.6
FCARTRLPPTPLLLFPEEEATNGR [S4R] | 3.03
FCAWTRLPPTPLLLFPEEEATNGR [S4W] | 3.38
FCAQTRLPPTPLLLFPEEEATNGR [S4Q] | 3.36
FCACTRLPPTPLLLFPEEEATNGR [S4C] | 2.54
FCAVTRLPPTPLLLFPEEEATNGR [S4V] | 3.08

Variant | protein stability index
FCALTRLPPTPLLLFPEEEATNGR [S4L] | 2.85
FCAFTRLPPTPLLLFPEEEATNGR [S4F] | 2.54
FCAATRLPPTPLLLFPEEEATNGR [S4A] | 2.8
FCATTRLPPTPLLLFPEEEATNGR [S4T] | 2.76
FCAKTRLPPTPLLLFPEEEATNGR [S4K] | 3.01
FCASTFLPPTPLLLFPEEEATNGR [R6F] | 2.2
FCASTNLPPTPLLLFPEEEATNGR [R6N] | 3.5
FCASTGLPPTPLLLFPEEEATNGR [R6G] | 2.7
FCASTYLPPTPLLLFPEEEATNGR [R6Y] | 2.33
FCASTELPPTPLLLFPEEEATNGR [R6E] | 4.11
FCASTALPPTPLLLFPEEEATNGR [R6A] | 3.37
FCASTVLPPTPLLLFPEEEATNGR [R6V] | 3.42
FCASTSLPPTPLLLFPEEEATNGR [R6S] | 3.29
FCASTDLPPTPLLLFPEEEATNGR [R6D] | 3.9
FCASTHLPPTPLLLFPEEEATNGR [R6H] | 3.25
FCASTILPPTPLLLFPEEEATNGR [R6I] | 2.46
FCASTKLPPTPLLLFPEEEATNGR [R6K] | 3.09
FCASTCLPPTPLLLFPEEEATNGR [R6C] | 2.7
FCASTLLPPTPLLLFPEEEATNGR [R6L] | 2.73
FCASTQLPPTPLLLFPEEEATNGR [R6Q] | 3.49
FCASTWLPPTPLLLFPEEEATNGR [R6W] | 2.12
FCASTMLPPTPLLLFPEEEATNGR [R6M] | 3.27
